Assay results from US10222368B2 (priority 2012, dated 2019).

Columns and labels:
KAPPA opioid receptor = KAPPA opioid receptor (Homo sapiens, UniProt P41145); details: cited from earlier work
[1] = biological target: T1, human FLNA-α7nAChR complex (Homo sapiens, UniProt P21333); assay: Supplemental ELISA for FLNA-α7nAChR complex (Example 8: specificity, accuracy, precision, linearity, detection limit)
T1 construct: To determine the levels of FLNA-α7nAChR, FLNA-TLR4 and α7nAChR-Aβ42 complexes in the lymphocytes; endogenous in cells; host or cells: lymphocytes from venous blood of AD patients and control subjects (ex vivo)
T1 sequence (P21333 2-2647 limits assumed, one chain of several): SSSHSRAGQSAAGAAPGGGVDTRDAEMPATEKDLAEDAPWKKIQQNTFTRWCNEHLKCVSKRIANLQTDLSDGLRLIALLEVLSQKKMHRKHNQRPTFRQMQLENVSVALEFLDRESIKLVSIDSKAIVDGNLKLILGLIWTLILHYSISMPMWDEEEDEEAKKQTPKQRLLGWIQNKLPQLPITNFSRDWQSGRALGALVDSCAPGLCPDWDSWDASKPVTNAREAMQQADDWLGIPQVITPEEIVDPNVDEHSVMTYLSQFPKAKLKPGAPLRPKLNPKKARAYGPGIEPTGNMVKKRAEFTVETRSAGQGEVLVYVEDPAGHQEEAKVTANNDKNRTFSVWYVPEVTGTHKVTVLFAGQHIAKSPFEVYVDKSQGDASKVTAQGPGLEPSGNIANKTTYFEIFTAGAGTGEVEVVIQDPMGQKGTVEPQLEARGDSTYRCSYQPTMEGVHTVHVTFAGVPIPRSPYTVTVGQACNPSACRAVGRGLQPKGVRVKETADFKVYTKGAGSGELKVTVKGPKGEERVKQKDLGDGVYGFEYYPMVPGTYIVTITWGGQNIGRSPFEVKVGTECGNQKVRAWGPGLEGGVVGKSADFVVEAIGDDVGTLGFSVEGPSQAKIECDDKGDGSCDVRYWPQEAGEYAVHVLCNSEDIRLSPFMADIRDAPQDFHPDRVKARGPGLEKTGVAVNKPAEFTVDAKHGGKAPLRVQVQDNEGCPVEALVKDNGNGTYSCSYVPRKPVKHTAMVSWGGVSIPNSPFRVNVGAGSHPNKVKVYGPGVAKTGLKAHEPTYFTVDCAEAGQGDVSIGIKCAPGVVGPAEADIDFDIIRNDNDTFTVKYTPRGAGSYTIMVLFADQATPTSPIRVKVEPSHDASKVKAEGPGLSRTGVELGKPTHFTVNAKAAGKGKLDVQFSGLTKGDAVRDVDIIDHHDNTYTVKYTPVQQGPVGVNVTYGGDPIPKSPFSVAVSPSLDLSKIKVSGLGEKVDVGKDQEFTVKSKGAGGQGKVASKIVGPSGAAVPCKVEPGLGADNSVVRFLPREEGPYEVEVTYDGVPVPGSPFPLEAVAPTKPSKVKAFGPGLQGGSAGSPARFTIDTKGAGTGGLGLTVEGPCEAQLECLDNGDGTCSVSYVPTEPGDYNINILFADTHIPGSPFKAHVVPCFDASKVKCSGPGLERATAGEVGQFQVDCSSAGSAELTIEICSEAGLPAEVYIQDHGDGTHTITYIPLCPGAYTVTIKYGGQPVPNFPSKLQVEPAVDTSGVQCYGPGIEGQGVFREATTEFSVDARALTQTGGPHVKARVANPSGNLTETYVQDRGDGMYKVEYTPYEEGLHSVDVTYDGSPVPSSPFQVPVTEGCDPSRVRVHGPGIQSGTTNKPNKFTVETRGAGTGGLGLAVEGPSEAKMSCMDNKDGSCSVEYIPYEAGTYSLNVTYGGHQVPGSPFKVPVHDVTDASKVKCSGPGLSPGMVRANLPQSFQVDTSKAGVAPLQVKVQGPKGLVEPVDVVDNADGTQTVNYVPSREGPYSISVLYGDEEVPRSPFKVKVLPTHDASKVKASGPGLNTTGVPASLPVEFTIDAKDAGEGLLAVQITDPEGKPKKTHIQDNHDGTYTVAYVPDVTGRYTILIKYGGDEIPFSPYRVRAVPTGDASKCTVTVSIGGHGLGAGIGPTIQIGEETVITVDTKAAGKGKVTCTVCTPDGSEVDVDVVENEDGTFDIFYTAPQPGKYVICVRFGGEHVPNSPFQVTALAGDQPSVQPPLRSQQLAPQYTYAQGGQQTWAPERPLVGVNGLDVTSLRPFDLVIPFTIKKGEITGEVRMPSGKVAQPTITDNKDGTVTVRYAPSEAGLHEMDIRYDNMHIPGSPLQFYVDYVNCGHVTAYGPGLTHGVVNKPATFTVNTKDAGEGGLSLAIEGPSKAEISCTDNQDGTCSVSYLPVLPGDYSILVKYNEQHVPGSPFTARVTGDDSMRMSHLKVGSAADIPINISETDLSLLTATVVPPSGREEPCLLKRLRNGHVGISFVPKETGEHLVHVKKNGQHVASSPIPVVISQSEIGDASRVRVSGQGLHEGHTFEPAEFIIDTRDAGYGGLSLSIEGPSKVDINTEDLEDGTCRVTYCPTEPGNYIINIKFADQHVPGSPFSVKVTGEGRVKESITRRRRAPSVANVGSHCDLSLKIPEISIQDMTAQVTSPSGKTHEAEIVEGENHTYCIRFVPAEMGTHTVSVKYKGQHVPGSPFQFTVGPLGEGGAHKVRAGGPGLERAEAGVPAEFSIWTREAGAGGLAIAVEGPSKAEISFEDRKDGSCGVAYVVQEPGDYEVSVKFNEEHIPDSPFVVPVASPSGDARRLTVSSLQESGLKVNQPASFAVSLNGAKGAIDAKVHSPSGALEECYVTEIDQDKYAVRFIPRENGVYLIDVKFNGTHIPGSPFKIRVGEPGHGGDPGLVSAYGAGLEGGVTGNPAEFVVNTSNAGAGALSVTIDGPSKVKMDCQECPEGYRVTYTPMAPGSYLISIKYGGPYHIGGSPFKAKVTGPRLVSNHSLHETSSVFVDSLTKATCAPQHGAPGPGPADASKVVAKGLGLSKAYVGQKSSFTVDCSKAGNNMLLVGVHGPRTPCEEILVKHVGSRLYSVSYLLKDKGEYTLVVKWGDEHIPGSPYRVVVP
Description: The following ELISA method activities were carried out to quantify FLNA-α7nAChR complex: specificity; accuracy; precision/repeatability; linearity and range; and, detection limit.
To assure ELISA assay uniquely identifies human FLNA-α7nAChR complex, the cross reactivity to human FLNA-α7nAChR complex, unrelated human proteins human leptin and human chorionic gonadotropin (hLeptin and hCG) were added to the lymphocyte lysate preparations and the ELISA assay performed.
To assure the ELISA assay returns a value that is representative of the “true” value, a range of concentrations of recombinant human leptin was spiked into lysate sample with FLNA-α7nAChR complex. Recovery percent concentrations were measured and accuracy calculated.
To assure that three measurements of a single lysate sample (e.g., sample AD#63) made in the same assay provide the same result, three samples were measured using the ELISA assay, three times on the same day using the same methods (repeatability). Within-day RSD was calculated.
To assure that the response is linear over the range of expected sample values, OD 450 of different concentrations of human FLNA-α7nAChR complex were detected using the ELISA assay. […]

Sequence of KAPPA opioid receptor (P41145 whole entry): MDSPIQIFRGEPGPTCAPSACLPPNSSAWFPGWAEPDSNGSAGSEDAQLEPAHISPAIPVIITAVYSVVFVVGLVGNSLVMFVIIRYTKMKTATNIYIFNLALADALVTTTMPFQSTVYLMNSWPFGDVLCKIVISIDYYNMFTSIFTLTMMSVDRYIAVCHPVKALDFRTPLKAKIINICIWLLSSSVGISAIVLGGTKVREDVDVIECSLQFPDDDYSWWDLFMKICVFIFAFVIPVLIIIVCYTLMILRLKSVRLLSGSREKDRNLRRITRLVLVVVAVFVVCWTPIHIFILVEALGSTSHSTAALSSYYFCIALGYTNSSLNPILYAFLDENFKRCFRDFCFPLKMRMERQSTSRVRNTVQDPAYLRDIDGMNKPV

| Compound | Opioid receptor activity and relative potency, KAPPA (KAPPA opioid receptor) | Normalized OD, Average ([1]; 5 μg protein per well instead of lymphocyte lysate) | % Cross reactivity ([1]; 5 μg protein per well, relative to 5 μg AD#63 lysate) [%] |
| --- | --- | --- | --- |
| Oc1ccc2c3c1O[C@H]1c4[nH]c5c(c4C[C@@]4(O)C(C2)N(CC2CC2)CC[C@]314)C[C@@]1(O)[C@H]2Cc3ccc(O)c4c3[C@@]1(CCN2CC1CC1)[C@H]5O4 [Binaltrophimine] | − − |  |  |
| hLeptin: unrelated human proteins human leptin and human chorionic gonadotropin (hLeptin and hCG); Human recombinant leptin |  | 0.02 | 4.3 |
